Test results reported in patent US20250109187A1 (NOVAVAX, published 2025).

Columns and labels:
[1] = target: T1, EG.5.1 rS (SARS-CoV-2 variant EG.5.1, UniProt P0DTC2 14-1273)
[2] = target: T2, FL.1.5.1 rS (SARS-CoV-2 variant FL.1.5.1, UniProt P0DTC2 14-1273)
[3] = target: T3, SARS-CoV-2 Omicron XBB.1.5 rS (SARS-CoV-2 variant XBB.1.5, UniProt P0DTC2 14-1273)
[4] = target: T4, XBB.2.3 rS (SARS-CoV-2 variant XBB.2.3, UniProt P0DTC2 14-1273)
[5] = target: T5, XBB.1.16 rS (SARS-CoV-2 variant XBB.1.16, UniProt P0DTC2 14-1273)
[6] = target: T6, XBB.1.16.6 rS (SARS-CoV-2 variant XBB.1.16.6, UniProt P0DTC2 14-1273)
[7] = target: T1, EG.5.1 rS; assay: ELISA: rS coated, mAb titrated, anti-mouse HRP
[8] = target: T2, FL.1.5.1 rS; assay: ELISA: rS coated, mAb titrated, anti-mouse HRP
[9] = target: T3, SARS-CoV-2 Omicron XBB.1.5 rS; assay: ELISA: rS coated, mAb titrated, anti-mouse HRP
[10] = target: T4, XBB.2.3 rS; assay: ELISA: rS coated, mAb titrated, anti-mouse HRP
[11] = target: T5, XBB.1.16 rS; assay: ELISA: rS coated, mAb titrated, anti-mouse HRP
[12] = target: T6, XBB.1.16.6 rS; assay: ELISA: rS coated, mAb titrated, anti-mouse HRP

B1: NVX.62.12 (antibody, V domains shown)
VH: QVQLQQSGAELVRPGVSVKISCKGSGYTFTDYAMHWVKQSHAKSLEWIGVISTYSGDAYYNQKFKGKATVTVDKSSSTAYMELARLTSEDSAIYFCARNWDDYYAMDYWGQGTSVTVSS
VL: QIILSQSPAILSASPGERVTMTCRATSSVSYMHWYRQKPGSSPQPWIYATSNLASGVPARFSGSGSGTSYSLTISRVEAEDAATYYCQQWSGNPWTFGGGTKLEIK
notes: also called mAb NVX.62.12
IC50 [1]: > 3 µg/mL
IC50 [2]: > 3 µg/mL
IC50 [3]: > 3 µg/mL
IC50 [4]: > 3 µg/mL
IC50 [5]: > 3 µg/mL
IC50 [6]: > 3 µg/mL
EC50 [7]: 0.029 µg/mL
EC50 [8]: 0.021 µg/mL
EC50 [9]: 0.056 µg/mL
EC50 [10]: 0.067 µg/mL
EC50 [11]: 0.044 µg/mL
EC50 [12]: 0.063 µg/mL

B2: NVX.324.6 (antibody, V domains shown)
VH: EVQLQQSGPELGKPGTSMKISCKASGYSFTGYTMNWVKQSHGKNLEWIGLINPYNGGTSYNQKFKDKATLTVDKSSSTAYMELLSLTSEDSAVYYCVREHYYYDSGYGGYYAMDYWGQGTSVTVSS
VL: QIVLSQSPAILSASPGDKVTMTCRASASVNYMYWYQQKPGSSPKPWIYATSNLASGVPARFSGSGSGTSYSLTISRVEAEDAAIYYCQQWSSNPYTFGGGTKLEIK
notes: also called mAb NVX.324.6
IC50 [1]: > 3 µg/mL
IC50 [2]: > 3 µg/mL
IC50 [3]: > 3 µg/mL
IC50 [4]: > 3 µg/mL
IC50 [5]: > 3 µg/mL
IC50 [6]: > 3 µg/mL
EC50 [7]: 0.018 µg/mL
EC50 [8]: 0.014 µg/mL
EC50 [9]: 0.03 µg/mL
EC50 [10]: 0.028 µg/mL
EC50 [11]: 0.027 µg/mL
EC50 [12]: 0.021 µg/mL
